In publication doi:10.1101/2025.02.12.637862 one finds Kd data, which are given here for one substance.

This experiment has as its target biotinylated recombinant SARS-CoV-2 RBD (SARS-CoV-2) (UniProt P0DTC2). Kind of experiment: BLI.

On to “soluble N. vison ACE2 (domain or fragment)”, for which the Kd amounted to 1.5 µM.
